Test results from article PMC9853002, “Tumor treatment by pHLIP-targeted antigen delivery” (Frontiers in Bioengineering and Biotechnology, 2023).

Experiments:
[1] = pH-dependent interaction of HA-pHLIP agents with POPC liposomes (tryptophan fluorescence); format: physicochemical; conditions: 7 μM agent, 25°C; for cooperativity (n) of state II to state III transition / mid-point (pK) of state II to state III transition: pH-dependent insertion into POPC liposome bilayer, shift of fluorescence maximum vs pH, Henderson-Hasselbalch fit; for cooperativity (n) of state II to state III transition / mid-point (pK) of state II to state III transition / λmax in state III / λmax in state II: 1.4 mM POPC; for λmax in state I / λmax in state III / λmax in state II: position of tryptophan fluorescence maximum, excitation 295 nm; for λmax in state I: HA-pHLIP in solution at pH8; for λmax in state III: HA-pHLIP with POPC liposomes at pH3 (membrane-inserted); for λmax in state II: HA-pHLIP with POPC liposomes at pH8 (membrane-adsorbed)
[2] = test system: murine mammary carcinoma 4T1 cells; assay: Treatment with HA-pHLIP agents in 4T1 tumor mouse model; format: in vivo; conditions: 4T1 flank tumors in BALB/c mice immunized with KLH-HA/CFA and KLH-HA/IFA; IP 40–60 µM 400 μl every second day from day 3 or 4; tumors weighed typically days 17–19; mean of control group = 100%
[3] = test system: murine melanoma B16F10 cells; assay: Treatment with Gal-pHLIP in B16F10 tumor model in A3galt2 knockout mice; format: in vivo, mouse; conditions: B16F10 tumors in A3galt2 knockout mice immunized with HSA-Gal/CFA and HSA-Gal/IFA; IP 80 μM 450 μl each day for 10 days; tumors weighed day 12; versus untreated control; statistically significant
Method: A3galt2 knockout female and male mice were immunized by IP injection of Galα1-3Galβ-4Glc-HSA (HSA-Gal) (Dextra Laboratories) (day 1) (HSA is human serum albumin), at a concentration of 0.2 mg/ml emulsified at a ratio 1:1 with CFA. On days 14 and 21 after the first immunization, mice were boosted by IP injection of 200 μl of HSA-Gal (0.2 mg/ml) emulsified at a ratio 1:1 with IFA.
A3galt2 knockout female and male mice immunized with HSA-Gal and CFA/IFA adjuvants received a single SQ injection of 10^6 murine melanoma B16F10 cells (ATCC CRL-6475) in the right flank on day 1. On day 2, mice were randomized into groups and tri-Gal-pHLIP was administered via IP injections each day (80 μM 450 μl per injection). […] All mice in the control and treated groups were euthanized on day 12, tumors were collected and weighed.
The Kolmogorov-Smirnov two-tailed non-parametric test was used to compare two samples at a significance level of 0.05.

anti-HA antibodies = conditions: mouse, in vivo, ip
[4] = test system: murine melanoma B16F10 cells; conditions: B16F10 flank tumors in BALB/c mice immunized with 2 injections of KLH-HA/AddaVax; IP 40 μM 400 μl on days 1, 2 and 3 from about 100 mm^3; tumors weighed day 7; mean of control group = 100%

Substance | cooperativity (n) of state II to state III transition [1] | mid-point (pK) of state II to state III transition [1] | λmax in state I [1] [nm] | λmax in state III [1] [nm] | λmax in state II [1] [nm] | Norm. tumor weight [2] [%] | reduction of tumor growth [3] [%] | amount of anti-HA antibody in serum after treatment (anti-HA antibodies) | Norm. tumor weight [4] [%]
(Az)GGKGGGK[HA-Peg12]PWRAYLELLFPTETLLLELLLA [HA-Peg12-pHLIP4, v2, single HA-Peg12 on second Lys of pHLIP4] | 2.2 | 6.8 | 348 | 337 | 343 |  |  |  | 
(Az)GGK[HA-Peg12]GGGKPWRAYLELLFPTETLLLELLLA [HA-Peg12-pHLIP4, v1, single HA-Peg12 on first Lys of pHLIP4] | 1.7 | 6.4 | 347 | 337 | 343 |  |  |  | 
(Az)GGK[HA-Peg12]GGGK[HA-Peg12]PWRAYLELLFPTETLLLELLLA [2(HA-Peg12)-pHLIP4] | 1.3 | 5.8 | 347 | 337 | 344 | 55.3 |  |  | 
(Az)GGK[HA-Peg24]GGGK[HA-Peg24]PWRAYLELLFPTETLLLELLLA [2(HA-Peg24)-pHLIP4] | 0.7 | 5.8 | 347 | 336 | 347 |  |  |  | 
AK[3xHA-Peg12]QNDDQNK[3xHA-Peg12]PWRAYLDLLFPTDTLLLDLLWA [2(3xHA-Peg12)-pHLIP3] | 1.9 | 4.8 | 351 | 337 | 351 | 61.6 |  |  | 
AK[HA-Peg12]QNDDQNK[HA-Peg12]PWRAYLDLLFPTDTLLLDLLWA [2(HA-Peg12)-pHLIP3] | 1.9 | 4.8 | 351 | 337 | 351 | 61.3 |  |  | 
AK[HA-Peg24]QNDDQNK[HA-Peg24]PWRAYLDLLFPTDTLLLDLLWA [2(HA-Peg24)-pHLIP3] | 0.9 | 4.6 | 351 | 337 | 350 | 62.9 |  |  | 
Galα(1,3)Galβ(1,4)Glc-Peg4-NHC(O)-AADDQNPWRAYLDLLFPTDTLLLDLLWA-OH [Gal-pHLIP] |  |  |  |  |  |  | 66 |  | 
K(N3)[HA-Peg12]GGGGGK(N3)[HA-Peg12]PWRAYLELLFPTETLLLELLLA [2(HA-Peg12)-pHLIP5] | 0.9 | 6.2 | 347 | 340 | 346 |  |  | dropped significantly (close to background level) | 56.5
